# Experimental data as given in paper PMC9010756.
# Biological target: GST-CGN(1–70) (GST-tagged cCGN, 1–70 amino acids) (canis (dog))
# Assay: pull-down
# Sequence of GST-CGN(1–70) (GST-tagged cCGN, 1–70 amino acids) (canis (dog)) (A7YH32 1-70): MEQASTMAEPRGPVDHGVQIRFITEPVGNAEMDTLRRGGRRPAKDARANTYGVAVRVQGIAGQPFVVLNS
substance,measurement,value
GFP-hZO-1-Cter (1619–1748) (from UniProt Q07157 1619-1748) (domain or fragment),fold stronger binding than larger fragments,> 4 fold
